Source: publication PMC8163506, “A novel ATP dependent dimethylsulfoniopropionate lyase in bacteria that releases dimethyl sulfide and acryloyl-CoA” (eLife, 2021)

Molecular target: DddX (ATP-dependent DMSP lyase) of Psychrobacter sp. D2, recombinant (Psychrobacter sp. D2)
Experiment: SEC; gel filtration of purified DddX against molecular mass standards (semilog plot of mass versus Kav)

“DddX (ATP-dependent DMSP lyase) of Psychrobacter sp. D2, recombinant (enzyme)” was tested, and the stoichiometry N was 2.
